Source: patent US20230174655A1 (published 2023)

T1: FcγRIIa type H extracellular domain with C-terminal His tag (human, UniProt P12318 34-217)
T1 construct: extracellular domain; also called FcRIIaH; FcgRIIaH; not shown: His tag at the C terminus
T1 sequence (looked up): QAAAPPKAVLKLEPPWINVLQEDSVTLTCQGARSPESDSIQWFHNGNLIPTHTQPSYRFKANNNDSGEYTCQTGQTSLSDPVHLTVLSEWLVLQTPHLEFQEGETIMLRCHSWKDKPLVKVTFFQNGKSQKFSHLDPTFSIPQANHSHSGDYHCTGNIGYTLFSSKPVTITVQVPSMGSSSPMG

T2: FcγRIIa type R extracellular domain with C-terminal His tag (human, UniProt P12318 34-217)
T2 construct: extracellular domain; also called FcgRIIaR; FcγRIIa R; not shown: His tag at the C terminus
T2 sequence (looked up): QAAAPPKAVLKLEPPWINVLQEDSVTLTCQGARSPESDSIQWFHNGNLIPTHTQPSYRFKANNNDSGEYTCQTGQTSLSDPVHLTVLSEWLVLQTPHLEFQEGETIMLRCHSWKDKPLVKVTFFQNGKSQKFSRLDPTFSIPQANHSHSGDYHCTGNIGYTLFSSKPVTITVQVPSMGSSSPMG


Experiments:
[1] = molecular target: T1, FcγRIIa type H extracellular domain …; experiment: SPR (Biacore), antibody captured, FcgR analyte
Description: (§1) In the table, SEQ ID NO refers to the SEQ ID NO of the H chain of the evaluated variant, and alteration refers to the alteration introduced into IL6R-B3 (SEQ ID NO: 40). […] Furthermore, KD(IIaR)/KD(IIb) and KD(IIaH)/KD(IIb) in the table respectively represent the value obtained by dividing the KD value of each variant for FcγRIIaR by the KD value of each variant for FcγRIIb, and the value obtained by dividing the KD value of each variant for FcγRIIaH by the KD value of each variant for FcγRIIb. KD(IIb) of the parent polypeptide/KD(IIb) of the altered polypeptide refers to the value obtained by dividing the KD value of the parent polypeptide for FcγRIIb by the KD value of each variant for FcγRIIb.
(§2) Kinetic analyses for calculating the KD values of each altered antibody for FcγR were performed according to the following method. First, antibodies of interest were captured onto the above-mentioned sensor chips, and an Fcγ receptor diluted with the running buffer was allowed to interact. The Biacore™ Evaluation Software was used to globally fit the measured results to the obtained sensorgram using the 1:1 Langmuir binding model, and the association rate constant ka (L/mol/s) and the dissociation rate constant kd (1/s) were calculated; and from those values the dissociation constants KD (mol/L) were calculated.

[2] = molecular target: T2, FcγRIIa type R extracellular domain …; experiment: SPR (Biacore), antibody captured on chip, FcγR extracellular domain as analyte
Description: as §1, §2

Kd [1] [µM] | Kd [2] [µM] | Binder
10 | – | IL6R-BF146/IL6R-L (antibody, human IgG1, kappa, alteration printed: L234Y/G237D/P238D/K326A; copies: 2 + 2) heavy: QVQLQESGPGLVKPSETLSLTCAVSGHSISHDHAWSWVRQPPGEGLEWIGFISYSGITNYNPSLQGRVTISRDNSKNTLYLQMNSLRAEDTAVYYCARSLARTTAMDYWGEGTLVTVSSASTKGPSVFPLAPSSKSTSGGTAALGCLVKDYFPEPVTVSWNSGALTSGVHTFPAVLQSSGLYSLSSVVTVPSSSLGTQTYICNVNHKPSNTKVDKKVEPKSCDKTHTCPPCPAPEYLGDDSVFLFPPKPKDTLMISRTPEVTCVVVDVSHEDPEVKFNWYVDGVEVHNAKTKPREEQYNSTYRVVSVLTVLHQDWLNGKEYKCKVSNAALPAPIEKTISKAKGQPREPQVYTLPPSRDELTKNQVSLTCLVKGFYPSDIAVEWESNGQPENNYKTTPPVLDSDGSFFLYSKLTVDKSRWQQGNVFSCSVMHEALHNHYTQESLSLSP light: not shown
– | 16 | IL6R-BP142/IL6R-L (antibody, human IgG1, kappa, IgG1; P238D/K326N (EU) introduced into IL6R-B3) heavy: QVQLQESGPGLVKPSETLSLTCAVSGHSISHDHAWSWVRQPPGEGLEWIGFISYSGITNYNPSLQGRVTISRDNSKNTLYLQMNSLRAEDTAVYYCARSLARTTAMDYWGEGTLVTVSSASTKGPSVFPLAPSSKSTSGGTAALGCLVKDYFPEPVTVSWNSGALTSGVHTFPAVLQSSGLYSLSSVVTVPSSSLGTQTYICNVNHKPSNTKVDKKVEPKSCDKTHTCPPCPAPELLGGDSVFLFPPKPKDTLMISRTPEVTCVVVDVSHEDPEVKFNWYVDGVEVHNAKTKPREEQYNSTYRVVSVLTVLHQDWLNGKEYKCKVSNNALPAPIEKTISKAKGQPREPQVYTLPPSRDELTKNQVSLTCLVKGFYPSDIAVEWESNGQPENNYKTTPPVLDSDGSFFLYSKLTVDKSRWQQGNVFSCSVMHEALHNHYTQESLSLSP light: not shown
